Data published in US20140212436A1.
Where two headings read alike, the source gives them in different places.

Experiments:
[1] = target: human H131 FcγRIIa (human) (UniProt P12318); test: Biacore
FcγRIIaR (human) = FcγRIIaR (human) (UniProt P12318); test: Biacore
human FcγRI (human) [2] = target: human FcγRI (human) (UniProt P12314); test: Biacore
[3] = target: human V158 FcγRIIIa (human) (UniProt P08637); test: Biacore
[4] = target: recombinant human FcγRIIb protein (human) (UniProt P31994); test: Biacore
recombinant human FcγRIIb protein (human), sequence (P31994 46-217 limits assumed): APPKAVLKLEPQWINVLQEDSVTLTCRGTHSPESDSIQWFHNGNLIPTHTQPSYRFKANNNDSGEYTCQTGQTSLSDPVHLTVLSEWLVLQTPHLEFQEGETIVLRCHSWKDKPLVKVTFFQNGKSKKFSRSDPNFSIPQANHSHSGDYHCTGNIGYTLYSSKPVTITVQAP

[5] = target: recombinant human FcγRIIb protein (human) (UniProt P31994); test: Biacore SPR, antibody captured on protein A/G, FcγRIIb injected
[6] = target: human H131 FcγRIIa (human) (UniProt P12318); test: Biacore; remark: listed apart in the source
human FcγRI (human) [7] = target: human FcγRI (human) (UniProt P12314); test: Biacore; remark: listed apart in the source
[8] = target: human V158 FcγRIIIa (human) (UniProt P08637); test: Biacore; remark: listed apart in the source
[9] = target: recombinant human FcγRIIb protein (human) (UniProt P31994); test: Biacore; remark: listed apart in the source

human FcγRI (human), sequence (P12314 16-288 limits assumed): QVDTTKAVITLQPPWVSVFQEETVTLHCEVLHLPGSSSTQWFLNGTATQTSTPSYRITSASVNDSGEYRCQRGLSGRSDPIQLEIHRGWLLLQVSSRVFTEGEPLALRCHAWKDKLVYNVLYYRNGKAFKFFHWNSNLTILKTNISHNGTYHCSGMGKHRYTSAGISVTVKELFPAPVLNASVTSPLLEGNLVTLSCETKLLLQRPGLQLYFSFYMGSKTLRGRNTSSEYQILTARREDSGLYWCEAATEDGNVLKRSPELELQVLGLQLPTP
human H131 FcγRIIa (human), sequence (P12318 other isoform, or with tags, fused parts or gaps limits assumed): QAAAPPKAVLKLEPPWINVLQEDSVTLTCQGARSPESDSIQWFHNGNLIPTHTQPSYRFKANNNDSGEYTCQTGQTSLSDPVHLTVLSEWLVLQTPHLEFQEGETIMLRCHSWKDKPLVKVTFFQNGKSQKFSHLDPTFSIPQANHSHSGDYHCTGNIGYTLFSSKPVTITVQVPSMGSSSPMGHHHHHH
human V158 FcγRIIIa (human), sequence (P08637 other isoform, or with tags, fused parts or gaps limits assumed): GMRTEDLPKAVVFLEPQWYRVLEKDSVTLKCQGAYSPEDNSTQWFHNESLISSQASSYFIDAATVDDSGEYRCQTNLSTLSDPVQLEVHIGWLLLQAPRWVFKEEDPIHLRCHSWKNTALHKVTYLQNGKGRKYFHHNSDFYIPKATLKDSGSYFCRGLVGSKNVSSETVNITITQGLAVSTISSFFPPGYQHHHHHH
FcγRIIaR (human), sequence (P12318 34-217 H167R limits assumed): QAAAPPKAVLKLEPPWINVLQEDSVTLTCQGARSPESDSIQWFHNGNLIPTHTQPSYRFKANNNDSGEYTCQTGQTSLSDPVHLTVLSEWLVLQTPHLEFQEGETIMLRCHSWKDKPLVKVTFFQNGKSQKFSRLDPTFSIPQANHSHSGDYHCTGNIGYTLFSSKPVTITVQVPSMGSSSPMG

Kd [1]: 646 nM
Fold (FcγRIIaR (human)): 1
Kd (FcγRIIaR (human)): 859 nM
Kd (human FcγRI (human) [2]): 0.329 nM
Kd [3]: 191 nM
Kd [4]: 1470 nM
Kd [5]: 1800 nM
Fold [6]: 1
Kd [6]: 850 nM
Fold (human FcγRI (human) [7]): 1
Kd (human FcγRI (human) [7]): 0.28 nM
Fold [8]: 1
Kd [8]: 200 nM
Fold [9]: 1
Substance: anti-CD19 antibody HuAM4G7, WT (native) IgG1 Fc
